Patent US20220298231A1 (AC IMMUNE, published 2022)

Key:
alpha-synuclein fibrils = alpha-synuclein fibrils (Homo sapiens (Human), UniProt P37840 1-140); assay: SPR, 450 nM aggregates, relative to chimeric;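 note: surface plasmon resonance with anti-human Fc capture, human IgG1 isotype control channel and buffer run subtracted, dissociation rates fitted by 1:1 or heterogeneous ligand binding model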
Experimental: (§1) Flow channels (Fc) 1-8 were activated with a fresh solution of EDC/NHS (Amine Coupling Kit, 1:1 ratio of both reagents, GE Healthcare Life Sciences, BR100050). […] The chip was deactivated by 1 M ethanolamine-HCl (GE Healthcare Life Sciences, BR100050) at a flow rate of 10 μL/min for 420 s.
(§2) A human IgG1 isotype control diluted in running buffer 1×HBS-EP+ (GE Healthcare Life Sciences, BR100669) was captured onto Fc1 via anti-human Fc IgG at a flow rate of 10 μL/min. […] 10 mM glycine pH 1.5 as regeneration buffer was injected following every dissociation phase.
(§3) The data for reference channel Fc1 and buffer channel were subtracted to generate the sensorgrams. The experimental data was fitted by 1:1 binding model or heterogeneous ligand model.

[1] = target: human full-length alpha-synuclein (human, UniProt P37840 1-140); assay: SPR, 100 nM monomer, relative to chimeric;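 note: SPR with antibody variants captured via anti-human Fc IgG on an amine-coupled chip, isotype IgG1 reference channel subtracted, dissociation rate fitted by 1:1 or heterogeneous ligand model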
Experimental: as §1, §2, §3

Row | Binder | Relative koff (alpha-synuclein fibrils) | Relative koff [1]
1 | hACI-7067-1101C8-Ab2_H2L1 (antibody, V domains shown, VH on human IgG1 constant, VL on human kappa constant) VH: EVQLVESGGGLVQPGGSLKLSCAASGFSFNIYAMNWVRQAPGKGLEWVGRIRSKSNAYATYYAASVKGRFTISRDDSKNTLYLQMNNLKTEDTAVYYCVRVGLRFYAMDYWGQGTLVTVSS VL: DVVMTQSPLSLPVTLGQPASISCRSSQSIVHSNANTYLEWYQQRPGQSPRLLIYKVSNRFSGVPDRFSGSGSGTDFTLKISRVEAEDLGVYYCFQGSQGPLTFGQGTKLEIK | 0.5 | 2
2 | hACI-7067-1101C8-Ab2_H3L4 (antibody, V domains shown, VH on human IgG1 constant, VL on human kappa constant) VH: EVQLVESGGGLVQPGGSLKLSCAASGFSFNIYAMNWVRQAPGKGLEWVGRIRSKSNAYATYYAASVKGRFTISRDDSKNTAYLQMNNLKTEDTAVYYCVRVGLRFYAMDYWGQGTLVTVSS VL: DVVMTQSPLSLPVTLGQPASISCRSSQSLVHSNANTYLEWFQQRPGQSPRLLIYKVSNRFSGVPDRFSGSGSGTDFTLKISRVEAEDLGVYYCFQGSQGPLTFGQGTKLEIK | 0.3 | 0.1
3 | hACI-7067-1101C8-Ab2_H2L4 (antibody, V domains shown, VH on human IgG1 constant, VL on human kappa constant) VH: EVQLVESGGGLVQPGGSLKLSCAASGFSFNIYAMNWVRQAPGKGLEWVGRIRSKSNAYATYYAASVKGRFTISRDDSKNTLYLQMNNLKTEDTAVYYCVRVGLRFYAMDYWGQGTLVTVSS VL: DVVMTQSPLSLPVTLGQPASISCRSSQSLVHSNANTYLEWFQQRPGQSPRLLIYKVSNRFSGVPDRFSGSGSGTDFTLKISRVEAEDLGVYYCFQGSQGPLTFGQGTKLEIK | 0.2 | 0.1
4 | hACI-7067-1101C8-Ab2_H3L2 (antibody, V domains shown, VH on human IgG1 constant, VL on human kappa constant) VH: EVQLVESGGGLVQPGGSLKLSCAASGFSFNIYAMNWVRQAPGKGLEWVGRIRSKSNAYATYYAASVKGRFTISRDDSKNTAYLQMNNLKTEDTAVYYCVRVGLRFYAMDYWGQGTLVTVSS VL: DVVMTQSPLSLPVTLGQPASISCRSSQSLVHSNANTYLEWYQQRPGQSPRLLIYKVSNRFSGVPDRFSGSGSGTDFTLKISRVEAEDLGVYYCFQGSQGPLTFGQGTKLEIK | 1230 | 0.6
5 | hACI-7067-1101C8-Ab2_H3L3 (antibody, V domains shown, VH on human IgG1 constant, VL on human kappa constant) VH: EVQLVESGGGLVQPGGSLKLSCAASGFSFNIYAMNWVRQAPGKGLEWVGRIRSKSNAYATYYAASVKGRFTISRDDSKNTAYLQMNNLKTEDTAVYYCVRVGLRFYAMDYWGQGTLVTVSS VL: DVVMTQSPLSLPVTLGQPASISCRSSQSIVHSNANTYLEWFQQRPGQSPRLLIYKVSNRFSGVPDRFSGSGSGTDFTLKISRVEAEDLGVYYCFQGSQGPLTFGQGTKLEIK | 0.2 | 0.1
6 | hACI-7067-1101C8-Ab2_H2L2 (antibody, V domains shown, VH on human IgG1 constant, VL on human kappa constant) VH: EVQLVESGGGLVQPGGSLKLSCAASGFSFNIYAMNWVRQAPGKGLEWVGRIRSKSNAYATYYAASVKGRFTISRDDSKNTLYLQMNNLKTEDTAVYYCVRVGLRFYAMDYWGQGTLVTVSS VL: DVVMTQSPLSLPVTLGQPASISCRSSQSLVHSNANTYLEWYQQRPGQSPRLLIYKVSNRFSGVPDRFSGSGSGTDFTLKISRVEAEDLGVYYCFQGSQGPLTFGQGTKLEIK | 1.9 | 1.1
7 | hACI-7067-1101C8-Ab2_H1L3 (antibody, V domains shown, VH on human IgG1 constant, VL on human kappa constant) VH: EVQLVESGGGLVQPGGSLKLSCAASGFSFNIYAMNWVRQAPGKGLEWVARIRSKSNAYATYYAASVKGRFTISRDDSKNTLYLQMNNLKTEDTAVYYCVRVGLRFYAMDYWGQGTLVTVSS VL: DVVMTQSPLSLPVTLGQPASISCRSSQSIVHSNANTYLEWFQQRPGQSPRLLIYKVSNRFSGVPDRFSGSGSGTDFTLKISRVEAEDLGVYYCFQGSQGPLTFGQGTKLEIK | 0.3 | 0.2
8 | hACI-7067-1101C8-Ab2_H1L2 (antibody, V domains shown, VH on human IgG1 constant, VL on human kappa constant) VH: EVQLVESGGGLVQPGGSLKLSCAASGFSFNIYAMNWVRQAPGKGLEWVARIRSKSNAYATYYAASVKGRFTISRDDSKNTLYLQMNNLKTEDTAVYYCVRVGLRFYAMDYWGQGTLVTVSS VL: DVVMTQSPLSLPVTLGQPASISCRSSQSLVHSNANTYLEWYQQRPGQSPRLLIYKVSNRFSGVPDRFSGSGSGTDFTLKISRVEAEDLGVYYCFQGSQGPLTFGQGTKLEIK | 131 | 0.6
9 | hACI-7067-1101C8-Ab2_H1L1 (antibody, V domains shown, VH on human IgG1 constant, VL on human kappa constant) VH: EVQLVESGGGLVQPGGSLKLSCAASGFSFNIYAMNWVRQAPGKGLEWVARIRSKSNAYATYYAASVKGRFTISRDDSKNTLYLQMNNLKTEDTAVYYCVRVGLRFYAMDYWGQGTLVTVSS VL: DVVMTQSPLSLPVTLGQPASISCRSSQSIVHSNANTYLEWYQQRPGQSPRLLIYKVSNRFSGVPDRFSGSGSGTDFTLKISRVEAEDLGVYYCFQGSQGPLTFGQGTKLEIK | 851 | 1.3
10 | hACI-7067-1101C8-Ab2_H2L3 (antibody, V domains shown, VH on human IgG1 constant, VL on human kappa constant) VH: EVQLVESGGGLVQPGGSLKLSCAASGFSFNIYAMNWVRQAPGKGLEWVGRIRSKSNAYATYYAASVKGRFTISRDDSKNTLYLQMNNLKTEDTAVYYCVRVGLRFYAMDYWGQGTLVTVSS VL: DVVMTQSPLSLPVTLGQPASISCRSSQSIVHSNANTYLEWFQQRPGQSPRLLIYKVSNRFSGVPDRFSGSGSGTDFTLKISRVEAEDLGVYYCFQGSQGPLTFGQGTKLEIK | 0.3 | 0.2
11 | hACI-7067-1101C8-Ab2_H3L1 (antibody, V domains shown, VH on human IgG1 constant, VL on human kappa constant) VH: EVQLVESGGGLVQPGGSLKLSCAASGFSFNIYAMNWVRQAPGKGLEWVGRIRSKSNAYATYYAASVKGRFTISRDDSKNTAYLQMNNLKTEDTAVYYCVRVGLRFYAMDYWGQGTLVTVSS VL: DVVMTQSPLSLPVTLGQPASISCRSSQSIVHSNANTYLEWYQQRPGQSPRLLIYKVSNRFSGVPDRFSGSGSGTDFTLKISRVEAEDLGVYYCFQGSQGPLTFGQGTKLEIK | 213 | 1
12 | hACI-7067-1101C8-Ab2_H1L4 (antibody, V domains shown, VH on human IgG1 constant, VL on human kappa constant) VH: EVQLVESGGGLVQPGGSLKLSCAASGFSFNIYAMNWVRQAPGKGLEWVARIRSKSNAYATYYAASVKGRFTISRDDSKNTLYLQMNNLKTEDTAVYYCVRVGLRFYAMDYWGQGTLVTVSS VL: DVVMTQSPLSLPVTLGQPASISCRSSQSLVHSNANTYLEWFQQRPGQSPRLLIYKVSNRFSGVPDRFSGSGSGTDFTLKISRVEAEDLGVYYCFQGSQGPLTFGQGTKLEIK | 0.3 | 0.1

Further lines, results first:

Row | Relative koff (alpha-synuclein fibrils) | Relative koff [1] | Binder
13 | 1.4 | 0.8 | hACI-7067-1101C8-Ab2_H5L2 (antibody, V domains shown, VH on human IgG1 constant, VL on human kappa constant) VH: EVQLVESGGGLVQPGGSLKLSCAASGFSFNIYAMNWVRQAPGKGLEWVGRIRSKSNAYATYYAASVKGRFTISRDDSKNTLYLQMNNLKTEDTAVYYCTRVGLRFYAMDYWGQGTLVTVSS VL: DVVMTQSPLSLPVTLGQPASISCRSSQSLVHSNANTYLEWYQQRPGQSPRLLIYKVSNRFSGVPDRFSGSGSGTDFTLKISRVEAEDLGVYYCFQGSQGPLTFGQGTKLEIK
14 | 0.2 | 0.1 | hACI-7067-1101C8-Ab2_H5L4 (antibody, V domains shown, VH on human IgG1 constant, VL on human kappa constant) VH: EVQLVESGGGLVQPGGSLKLSCAASGFSFNIYAMNWVRQAPGKGLEWVGRIRSKSNAYATYYAASVKGRFTISRDDSKNTLYLQMNNLKTEDTAVYYCTRVGLRFYAMDYWGQGTLVTVSS VL: DVVMTQSPLSLPVTLGQPASISCRSSQSLVHSNANTYLEWFQQRPGQSPRLLIYKVSNRFSGVPDRFSGSGSGTDFTLKISRVEAEDLGVYYCFQGSQGPLTFGQGTKLEIK
15 | 0.3 | 0.2 | hACI-7067-1101C8-Ab2_H4L3 (antibody, V domains shown, VH on human IgG1 constant, VL on human kappa constant) VH: EVQLVESGGGLVQPGGSLKLSCAASGFTFNIYAMNWVRQAPGKGLEWVGRIRSKSNAYATYYAASVKGRFTISRDDSKNTLYLQMNNLKTEDTAVYYCVRVGLRFYAMDYWGQGTLVTVSS VL: DVVMTQSPLSLPVTLGQPASISCRSSQSIVHSNANTYLEWFQQRPGQSPRLLIYKVSNRFSGVPDRFSGSGSGTDFTLKISRVEAEDLGVYYCFQGSQGPLTFGQGTKLEIK
16 | 1420 |  | hACI-7067-1101C8-Ab2_H7L1 (antibody, V domains shown, VH on human IgG1 constant, VL on human kappa constant) VH: EVQLVESGGGLVQPGGSLKLSCAASGFSFNIYAMNWVRQAPGKGLEWVARIRSKSNAYATYYAASVKGRFTISRDDSKNTLYLQMNNLKTEDTAVYYCVRVGLRFYATDYWGQGTLVTVSS VL: DVVMTQSPLSLPVTLGQPASISCRSSQSIVHSNANTYLEWYQQRPGQSPRLLIYKVSNRFSGVPDRFSGSGSGTDFTLKISRVEAEDLGVYYCFQGSQGPLTFGQGTKLEIK
17 | 0.3 | 0.1 | hACI-7067-1101C8-Ab2_H4L4 (antibody, V domains shown, VH on human IgG1 constant, VL on human kappa constant) VH: EVQLVESGGGLVQPGGSLKLSCAASGFTFNIYAMNWVRQAPGKGLEWVGRIRSKSNAYATYYAASVKGRFTISRDDSKNTLYLQMNNLKTEDTAVYYCVRVGLRFYAMDYWGQGTLVTVSS VL: DVVMTQSPLSLPVTLGQPASISCRSSQSLVHSNANTYLEWFQQRPGQSPRLLIYKVSNRFSGVPDRFSGSGSGTDFTLKISRVEAEDLGVYYCFQGSQGPLTFGQGTKLEIK
18 | 0.5 | 1.9 | hACI-7067-1101C8-Ab2_H4L1 (antibody, V domains shown, VH on human IgG1 constant, VL on human kappa constant) VH: EVQLVESGGGLVQPGGSLKLSCAASGFTFNIYAMNWVRQAPGKGLEWVGRIRSKSNAYATYYAASVKGRFTISRDDSKNTLYLQMNNLKTEDTAVYYCVRVGLRFYAMDYWGQGTLVTVSS VL: DVVMTQSPLSLPVTLGQPASISCRSSQSIVHSNANTYLEWYQQRPGQSPRLLIYKVSNRFSGVPDRFSGSGSGTDFTLKISRVEAEDLGVYYCFQGSQGPLTFGQGTKLEIK
19 | 1.6 | 1.1 | hACI-7067-1101C8-Ab2_H4L2 (antibody, V domains shown, VH on human IgG1 constant, VL on human kappa constant) VH: EVQLVESGGGLVQPGGSLKLSCAASGFTFNIYAMNWVRQAPGKGLEWVGRIRSKSNAYATYYAASVKGRFTISRDDSKNTLYLQMNNLKTEDTAVYYCVRVGLRFYAMDYWGQGTLVTVSS VL: DVVMTQSPLSLPVTLGQPASISCRSSQSLVHSNANTYLEWYQQRPGQSPRLLIYKVSNRFSGVPDRFSGSGSGTDFTLKISRVEAEDLGVYYCFQGSQGPLTFGQGTKLEIK
20 | 0.2 | 0.2 | hACI-7067-1101C8-Ab2_H5L3 (antibody, V domains shown, VH on human IgG1 constant, VL on human kappa constant) VH: EVQLVESGGGLVQPGGSLKLSCAASGFSFNIYAMNWVRQAPGKGLEWVGRIRSKSNAYATYYAASVKGRFTISRDDSKNTLYLQMNNLKTEDTAVYYCTRVGLRFYAMDYWGQGTLVTVSS VL: DVVMTQSPLSLPVTLGQPASISCRSSQSIVHSNANTYLEWFQQRPGQSPRLLIYKVSNRFSGVPDRFSGSGSGTDFTLKISRVEAEDLGVYYCFQGSQGPLTFGQGTKLEIK
